In the supplement of paper PMC9170038:

Test system: MS2 coat protein
Assay: apparent KD of MS2 coat protein; designed switch direction (-1 OFF switch, 1 ON switch): -1; higher = weaker reporter binding
How it was run: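 Each step of the titration lasted 0.8–1.5 h at the lowest concentration and 10–20 min at the highest. The protein, SNAP-549-labelled MS2 coat protein, went from 0.7 or 1.5 nM doubling to 3 µM over RNA switches transcribed on Illumina chips by stalled E. coli RNA polymerase. Normalised cluster fluorescence was curve-fitted, and the per-design median over clusters is given as apparent KD.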

[1] = Eterna round: R95, input ligand: FMN 200 uM
[2] = Eterna round: R95, input ligand: microRNA oligo, concentration not stated
[3] = Eterna round: R95, input ligand: none
[4] = input ligand: microRNA oligo, concentration not stated

Sequence	apparent KD of MS2 coat protein [2]	apparent KD of MS2 coat protein (input ligand: FMN 200 uM)	apparent KD of MS2 coat protein (input ligand: none)	other results
CUGGUCCGAGGAUAUAUUAAGUGAAACAUGAGGAUCACCCAUGUAAUUUAAUGGAUGUAAAUAGAAGGCGGACUAG [Mat - Exclusion 5 - JL mod - D39] (puzzle: Exclusion 5)	35.3 nM	–	–	apparent KD of MS2 coat protein [1]: 38.9 nM; apparent KD of MS2 coat protein [3]: 36.4 nM
CUGGUCCGAGGAUAUAUUAAGUGAUACAUGAGGAUCACCCAUGUUAUUUGAUGGAUGUAAAUAGAAGGCGGACUAG [JL-ex5-3.17] (puzzle: Exclusion 5)	38.9 nM	–	–	apparent KD of MS2 coat protein [1]: 37.1 nM; apparent KD of MS2 coat protein [3]: 45.2 nM
CUGGUCCGAGGAUAUAUUAUGUGAUACAUGAGGAUCACCCAUGUUAUAUGAUGGAUGUAAAUAGAAGGCGGACUAG [JL-ex5-3.15] (puzzle: Exclusion 5)	43.4 nM	–	–	apparent KD of MS2 coat protein [1]: 48 nM; apparent KD of MS2 coat protein [3]: 58.5 nM
CUGGUGUGAGGAUAUCAGGACACGCCCGAGGGCGUGUCAAAUGAGAAGGCACAUGAGGAUCACCCAUGUGGGAC [Atisrage] (puzzle: Exclusion 4)	39.8 nM	–	–	–
CUGUAACGAGCGUGAGCCUACAUGAGGAUCACCCAUGUGCUCGUCUUAUAACGUACUGUCACGUUAGUGAUAGUGCG [Sensor v3, turn-off variant 1 (MOD of Eli's v1-13 v.3)] (puzzle: Sensor v3, turn-off variant 1)	297 nM	–	–	apparent KD of MS2 coat protein [1]: 115 nM; apparent KD of MS2 coat protein [3]: 104 nM
CUGUAGUCAGGAUAUACAUGAGGAUCACCCAUGUAAAAUUUUAAUUUAAUUUGAAGGUGUAGAAGGGACCAGUC [Ex3 #26] (Eterna round: R97, puzzle: Exclusion 3)	–	30.1 nM	38.5 nM	–
CUGUGCACGCUGCGGUCCUACAUGAGGAUCACCCAUGUGGUCUGGUGGCGUGGGUCGCCGGACUUGGCUCGUCUUGA [salish99_S_TOV1_R5_023] (Eterna round: R97, puzzle: Sensor, turn-off variant 1)	–	19.1 nM	19.2 nM	–
CUGUUCCAUGUAGGAUAUGCAUAUUCUCAUUAUGCAGAAGGACAUGAGGAUCACCCAUGUAUGUUAUUAUCAUAUGUUACAUGU [Design 4] (Eterna round: R96, puzzle: Exclusion NG 1)	–	–	–	apparent KD of MS2 coat protein [4]: 27.2 nM
CUGUUUUUCGCAGGAUAUGCUCCUCCAUUAUUUGCAGAAGGGCGUUAAACAUGAGGAUCACCCAUGUAUGGUAAUGACUAUUGC [JR_ExcNG1_Sub066] (Eterna round: R96, puzzle: Exclusion NG 1)	–	27.4 nM	19.6 nM	apparent KD of MS2 coat protein [4]: 12.6 nM
CUGUUUUUCGCAGGAUAUGCUCCUCCAUUAUUUGCAGAAGGGCGUUGAACAUGAGGAUCACCCAUGUAUGGUAAUGACUAUUGC [JR_ExcNG1_Sub067] (Eterna round: R96, puzzle: Exclusion NG 1)	–	23.5 nM	22.4 nM	apparent KD of MS2 coat protein [4]: 14.7 nM
CUUAAACAUGAGGAUCACCCAUGUCAGGAUAUGAUACUAUGUACUUCGGUACAUAGUAUCAGAAGGGAUAUGAA [Ex1-3: 64] (puzzle: Exclusion 1)	43.1 nM	–	–	–
CUUAAUUGUCACAUGGGUGACAUGAGGAUCACCCAUGUCACAAGCUUUUUGCUCGUCUUAUAAUUAACCCAUGUGAC [Stov1/12-A3] (Eterna round: R97, puzzle: Sensor, turn-off variant 1)	–	13.7 nM	13.3 nM	–
CUUAAUUGUCAGAUGGGUGACAUGAGGAUCACCCAUGUCACAAGCUUUUUGCUCGUCUUAUAAUUAACCCAUCUGAC [Stov1/11-A4] (Eterna round: R97, puzzle: Sensor, turn-off variant 1)	–	13.5 nM	13.4 nM	–
CUUAGACAUGAGGAUCACCCAUGUGAGGAUAUGAAAUUAAUUAAUUAUGAAGUAUGAAUCAGAAGGCACAUAUG [Mat - Mod of Hyphema D35] (puzzle: Exclusion 1)	78.6 nM	–	–	apparent KD of MS2 coat protein [1]: 71.7 nM; apparent KD of MS2 coat protein [3]: 118 nM
CUUAGACAUGAGGAUCACCCAUGUGAGGAUAUGAUGCGAAUAAAGAAAGAAGAAAGCAUCAGAAGGCACAUAUG (Eterna round: R96, puzzle: Exclusion 1)	–	382 nM	125 nM	apparent KD of MS2 coat protein [4]: 94.1 nM
CUUAGACAUGAGGAUCACCCAUGUGAGGAUAUGAUGCGAAUAAAGAAAGAAGAAAGCAUCAGAAGGCACAUAUG [Fiskers Ex 1 - 1] (puzzle: Exclusion 1)	121 nM	–	–	apparent KD of MS2 coat protein [1]: 111 nM; apparent KD of MS2 coat protein [3]: 97.9 nM
CUUAGACAUGAGGAUCACCCAUGUGAGGAUAUGAUGCGAUCGUCGAAAGACGAUAGCAUCAGAAGGCACAUAUG [Fiskers Ex 1 - 6] (puzzle: Exclusion 1)	132 nM	–	–	–
CUUAGCCUAAAAUCACGCAAGCUUUUUGCUUGUCUUAAGACAUGAGGAUCACCCAUGUCCGGGCUGAACUUAUGGAA [Zarebe] (puzzle: Sensor v3, turn-off variant 2)	20.4 nM	–	–	apparent KD of MS2 coat protein [1]: 17.5 nM; apparent KD of MS2 coat protein [3]: 17.1 nM
CUUAGUUGGUAAGGAUAUCCUACAUUGUUCUGGCCCGGGCAUGCUACAUGAGGAUCACCCAUGUGGGAGAAGGUGCGUCAUCGC [Design 18] (Eterna round: R96, puzzle: Exclusion NG 2)	–	57.4 nM	53.6 nM	apparent KD of MS2 coat protein [4]: 45.1 nM
CUUCACGGAGGAUAUGCGGGCUGCGACAUGAGGAUCACCCAUGUUUAUGGAGCUUGGCAUGCAGAAGGCCGGGAGC [Eternabot (L2) Solution 19] (Eterna round: R97, puzzle: Exclusion 5)	–	9.81 nM	10.6 nM	–
CUUCGACAUGAGGAUCACCCAUGUCAGGAUAUUGUGUAUCGGGUUUUUUACGGUAAGGCAAGAAGGGAUGUGUG [LRO-Excl1-08] (puzzle: Exclusion 1)	29.9 nM	–	–	–
CUUCGUAUAGAGGAUAUAGGUUACUGCGGUAUCCUAGAAGGCUGUACAUGAGGAUCACCCAUGUACUUCAGAUC [Exclusion 6 - B - 13:c] (puzzle: Exclusion 6)	12.6 nM	–	–	–
CUUGUUUAUGUAGGAUAUGCCUGGCGUGCCUUUGCAGAAGGACAUGAGGAUCACCCAUGUAACAUGAGGCUCCACCUUGUCGCC [salish99_ExNG1_r04_117] (Eterna round: R96, puzzle: Exclusion NG 1)	–	–	–	apparent KD of MS2 coat protein [4]: 111 nM
CUUGUUUAUGUGAGGAUAUACUGUUAGUAAUGUUUGUAGAAGGUACAUGAGGAUCACCCAUGUUUAUUUAUAUU [JR_BME4_Sub043] (puzzle: Brourd's mod of Exclusion 4)	18.1 nM	–	–	–
CUUUAGCUAGGAUAUACAUGAGGAUCACCCAUGUUAGCGGUCAAUUGGGCCGCGGGUUGUAGAAGGAGCAUUAA [Aniscerile] (puzzle: Exclusion 3)	28.6 nM	–	–	–
CUUUAGUGAGGAUAUCAGUAGUAAUACAAUAGUAUUACUACUGAGAAGGCACAUGAGGAUCACCCAUGUUUCUC [Mat - Exclusion 4 - Mod of Omei - D78] (puzzle: Exclusion 4)	28 nM	–	–	–
CUUUAGUGAGGAUAUCAGUGGUAAUACAAUAGUAUUACUACUGAGAAGGCACAUGAGGAUCACCCAUGUUCCUC [Mat - Exclusion 4 - Mod of Omei - D84] (puzzle: Exclusion 4)	26.4 nM	–	–	–
